“Also recorded” adds a separate entry of the source.
B1: Hu-MEPE: purified insect expressed full-length recombinant human MEPE (Matrix Extracellular Phosphoglycoprotein) (protein)
chain: PTFQPQTEKTKQSCVEEQRQEEKNKDNIGFHHLGKRINQELSSKENIVQERKKDLSLSEASENKGSSKSQNYFTNRQRLNKEYSISNKENTHNGLRMSIYPKSTGNKGFEDGDDAISKLHDQEEYGAALIRNNMQHIMGPVTAIKLLGEENKENTPRNVLNIIPASMNYAKAHSKDKKKPQRDSQAQKSPVKSKSTHRIQHNIDYLKHLSKVKKIPSDFEGSGYTDLQERGDNDISPFSGDGQPFKDIPGKGEATGPDLEGKDIQTGFAGPSEAESTHLDTKKPGYNEIPEREENGGNTIGTRDETAKEADAVDVSLVEGSNDIMGSTNFKELPGREGNRVDAGSQNAHQGKVEFHYPPAPSKEKRKEGSSDAAESTNYNEIPKNGKGSTRKGVDHSNRNQATLNEKQRFPSKGKSQGLPIPSRGLDNEIKNEMDSFNGPSHENIITHGRKYHYVPHRQNNSTRNKGMPQGKGSWGRQPHSNRRFSSRRRDDSSESSDSGSSSESDGD

Assays:
[1] = biological target: anti-ASARM-peptide polyclonal; test: Competitive ELISA, biotinylated against non-biotinylated ASARM-peptide; format: binding, Rabbit; conditions: 0.5 ng/mL biotinylated ASARM-peptide
Description: MEPE ASARM-peptide (phosphorylated and non-phosphorylated) & polyclonal antibodies. The carboxy terminal region of MEPE containing residues 507-525 were synthesized using routine techniques by multiple peptide cloning systems (Multiple Peptide Systems, San Diego, Calif.). For ELISA studies, both phosphorylated and non-phosphorylated peptides were synthesized. The phosphorylated-form of the peptide (NH2—RDDSSESSDSG(Sp)S(Sp)E(Sp)DGD-COOH; SEQ ID NO. 14) was biotinylated using a Pierce EZ-Link Sulfo-NHS-LC-Biotinylation Kit (Pierce & Co, Rockford, Ill.) and the peptide de-salted using an Amersham Biosciences PD-10 Desalting column (Amersham Biosciences, Piscataway, N.J.). […] Rabbit polyclonal antibodies raised against ASARM-peptide NH2-[…]-COOH (SEQ ID NO. 5) were used in these studies and have been previously described (Rowe, et al., Bone 34:303-319, 2004). Pre-immune sera from the same rabbits were used as negative controls.
ELISA Assay. A new enzyme-linked-immunosorbent-assay (ELISA) was designed to specifically quantitate ASARM-peptide(s) in sera from humans and mice. […]

CHO cell tumors = test: Example IV: CHO cell tumors expressing MEPE in athymic nude mice; format: in vivo
Protocol: Six groups of athymic nude mice were injected with the one of the following: normal saline, CHO cells, CHO cells containing an empty vector, CHO cells expressing MEPE (CHO-MEPE), CHO cells expressing PHEX (CHO-PHEX), and CHO cells expressing PHEX and MEPE (CHO-PHEX-MEPE). Tumor size was assessed based on combined tumor weight at nine different time points.

Molecule	KD of quenching in competitive ELISA [1] [ng/mL]	Qmax (quench maximum) [1] [%]	tumor size (combined tumor weight) (CHO cell tumors; CHO cells expressing MEPE vs CHO cells with empty vector, nude mice)	1,25-vitamin D3 serum levels (CHO cell tumors; CHO-MEPE and CHO-PHEX-MEPE groups vs groups not expressing MEPE)	serum phosphate (CHO cell tumors; after thirteen days, CHO-MEPE and CHO-PHEX-MEPE groups)
H-CFSSRRRDDSSESSDSGSSSESDGD-OH [ASARM-peptide]	7.5	98.7	–	–	–
B1	–	–	significantly reduced; also recorded: dramatically reduced size	decrease in serum levels	hypophosphatemia; also recorded: decrease in serum phosphate

Reference: patent US20070099822A1, “Regulation of tissue mineralization and phosphate metabolism by asarm peptides” (priority 2003, published 2007)
